{
  "source": "patent US20230022700A1",
  "biological_target": "polymerized rabbit skeletal muscle actin (F-actin) (rabbit) (UniProt P68135)",
  "data": [
    {"substance": "Wolbachia wMel protein WD0830 (Wolbachia actin localizing effector 1, WalE1), purified from E. coli", "values": [
      {"measurement": "percent of total protein in the pellet when actin was present", "value": 24, "unit": "%"}
    ]}
  ]
}
